From publication PMC11016868

T1: MtrAC (MtrA DNA-binding domain) (UniProt P9WGM7 131-228)
T1 sequence: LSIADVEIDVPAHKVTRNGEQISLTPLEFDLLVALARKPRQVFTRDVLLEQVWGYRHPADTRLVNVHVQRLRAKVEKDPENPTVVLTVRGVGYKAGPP


Key:
[1] = molecular target: T1, MtrAC (MtrA DNA-binding domain); assay: fluorescence polarization
[2] = molecular target: PhoP (UniProt P71814 1-247); assay: fluorescence polarization

| Binder | Kd [1] | binding result [2] |
| --- | --- | --- |
| dnaA promoter DNA (dsDNA) DNA 1: GGCGGTGTAGTTATCACGCCGTTT DNA 2: AAACGGCGTGATAACTACACCGCC | 1230 ± 260 nM |  |
| PhoP DNA (from PhoP-DNA complex, 5ED4) (dsDNA) DNA 1: GATTCACAGCTGATTCACAGCATCTA DNA 2: TAGATGCTGTGAATCAGCTGTGAATC |  | binds |
